Assay: label from the status in PepcDB records
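Further: failed if final PepcDB status was selected cloned or expressed and not failed if soluble or beyond.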

Sequence	protein production
MNPEVTVLMSVYNDKNYLSESIESILNQTFENFEFLIINDASTDGSGELLEEYSKKDKRIRLIHNKNNRGLSYSLAEGVSLAKAPWIARMDADDVSFKDRLAVQMDHVKAHSELDILGSYVIDIDDKGNELEIRKVPTTHKEIANLIWTCPFIHPTVLFKKDSIIKAGSYDRNLRRRQDYDLWFRCLEAKLKFENIDKPLLYYRSTDDYYKKNNFKVQVQQAKMGFAGARRVKAKPIAYIGITVAFIKGILPYHIRKPLSQLLKKVDPRRALEHHHHHH	not failed
MNPIKPPFTLNQYFAAWFVHVFTASAACIGVFSLYKIYQHDYVFALWLMAITVFIDAVDGSLARLVHVKSVLPKIDGALLDNIVDYLNYVITPCFFLLVKPGMLPADYVVPITAAITITSAYQFCQDDAKTPDHFFKGFPCYWNITVFYMYIFNTSMIVNTVLLSLFCVLIFIPVKYVYPSRLDYLTESRVLKILMHCCSALYGISSFCLLVNYPETNKLWVSLSLGYVGMYLFLSFYRTYYPMFKAKITANNKD	failed
MNPTLSAAVTAPSAGTQDAEAEIRDLAQSLTLEQQVQLLTGADVWSTHAIPEIGLSRVVMSDGPAGVRGEDFDERHDSVSLPSSSALSATWSVETARNYGQVLGQEARRKGVHAVLGPTINLHRSPLGGRHFECMSEDPRLTATMAAGYVAGVQSMGVGATPKHYLANEAETERFTADSVVDERPLRELYLAAFEDAITEARAWLVMSSYNSINGTTASENKLLETPLSTEWGFDGVVVSDWTGVRSIDAANAHQDLEMPGPVGHWGPKLLAAVNEGRVSREAILEKVTRILRLAARVGSLEGFEPAVTHLPTELNGAAVAREVAVRGAVLVRNKGLLPLDAKALGSVAVIGHNADEARTQGGGSATVMPKYTVSPLEGLRKALPEGVKVTYARGAKVAEGIQAFPRTSLHNPVSNVPGIRVTFLAEDGTEISGEDRLASHLIWFGIGIPDGAASIRMEADWTAETAGVHHLGVGTVGRIRFVLDGTEVFNSELEDDTEVLGAALFDPPKTVHAIDTTAGQSIRIEAEYQLPKEQVIPFTAILLGEETVVAEPQAEIDAAVEAARASDVAVVVVGTNAAIESEGFDRKDLDLPGYQNQLVKAVAAANPRTVVVVNSGSPVLMPWLDTVDAVLLGWFGGQEFGSAVADILLGVEEPGGRLPTTWPSALDDVPVLNTTPTDGKVVYSEGIHIGYRAWLKQQAEGGAAPALPFGFGLGYTTFEFGKAHAPQAVTAGKDLVVHVPVKNTGTRTGREVVQVYVERTESAVERPVRWLAGYAGAHLAPAGTESVEIRIPAKAFAHYDGGWQFEQGTFRLLVGRHAADDFQSLDIELR	failed
MNQEVRFSRLEPEQRKALLIEATLACLKRHGFQGASVRKICAEAGVSVGLINHHYDGKDALVAEAYLAVTGRVMRLLRGAIDTAPGGARPRLSAFFEASFSAELLDPQLLDAWLAFWGAVGSIEAIGRVHDHSYGEYRALLVGVLRQLAEEGGWADFDAELAAISLSALLDGLWLESGLNPATFTPRQGVQICEAWVDGLEAGAHRRFRRAMEAC	not failed
MNQHLSISPSVSRPVWHQAIPLLLLEAALVLTWSSGFIGARFSLDYAPPLLVVFWRCVVVTLLLLPFVARQLVTLPPTLLLKNTGIGLLAMTGYVAGVTQGIALGVPAGLAALFADLLPMGMALLAALVLGQRLVWQIWAGLVVGLIGVVLVTHSALEWGNAPLWAYGLPLLGMFSLAIATLWQKHSTTSQPMKLLPNLWLQYFISSFAFAIIQGTQGGLAPIASSGFALSVAWTVGLATLGGYGLYWVCLRRAKATRVASVLYLSPPVTMLWAWAMFDEPLSWQIALGMVVSGVGVWMVIRAEARQVAS	failed
MNQMQGRLVAGRYRLGEAIGSGGMGRVWRAHDEVLHRTVAIKELTAALYVSESDQAILLARTRGEARAAARINHSAVVTVHDVLEHDGRPWIVMELVEGRSLADAVKEEERVDPREAARVGLWVLRALRAAHTAGVLHRDVKPGNVLLADDGRVLLTDFGIAQIEGDSTITRTGEVVGSVDYLAPERVRGHDPGPSSDLWALGATLYTAVEGRSPFRRTSPLTTMQAVVEEEATEPRYAGALAPVISALLRKDPAERPDATEAEHLLAQAAEGRRPDAAQAYVPTTRYEGPPRAGDTAVQGMPAGGSGATPYPQAGGSGATPYPPTTGPTGAGPAPTGHTRGGYTQVGHTEGGYTAPGYAPAPAVGGAAPGRARRVRMRTLALVVAVAALIGAGTAVVLHQRDEGGSSAGADPTQGPTGSAAPSPSPSASATTGKGPGGSVPADWTRRDDPLGFSLYLPENWQRRDFDGDSGELRQIDYTPDGGNHVLRISVDTAPDYNDPYAHQQDLDAQLLQRLVDYRRVKLERAGYRDRDSARWEYTWTALAKDTEFPGPRRAVSQMYMSRDGVEYALNMTGPAGDWPTTQRRFKAVLQGWQEETG	failed
MNQQEVAADYLKYFDDMLAKAADLTKDIKDADKKTVVYGNVSKFSQPHVIAEWWIDKAGGISVTSEAMTKANKESLTYTLEDLLKWNPDVMFVASAAEKKEVLADARLGEITAVKNGAIYIVPRIAHVWGNRTTEQPLTIMWAMNKLYPEIVTLEHHHHHH	not failed
MNQVEMTEFPVGKPQEALYGVASTPDGALWFTLAKGNAIGRLSPDGAVSRFPLPHTDGQPTTITCGPDGRPWFTLSSANAIGRLAPDGALRMFELPRPASRPFGIAGGHDGCLWFAEMAGDRIGRITIDGDIEEYDLPVKGGYPSCMAAGRDGLMWFTLNQAGAVGSISATAAPRIFPLGAADAAPVGIASDAQGALWIAQAGNGAIVRFDAGGRITEFPLHSRAARPHAIAADAAGNLWFTEWGANRIGRISEAGDLAGYELAAPGSEPHGIAIDPHGCVWAALETGRLVRLQASPRDLEHHHHHH	not failed
MNQVHHAAQQGFSQAAELYQHARPNYPQAVVEWLKQDLRLNKYSKVVDLGAGTGKFLPYLKQVTTDIVAVEPVHEMLQQLQTAHPDIKVLQAQSTNIPLESESIDAVLCAQSFHWFANIESLNEIYQLLKPSGHLGLIWNQRDENIDWVKQIADMLMTFEGDTPRYHSGEWKKAFEHQHLFKLEHARVFSHVHTGTVEQVVSQRLLSTSFIAAMPEAQQQQLKQQFEHIVFECTGKQPTDQIDFPYITYAYDFKKI	failed
MNQVVEFLKIFIPLFIVIDPFGSLVLFTSMTYNFNESEKLRATKDAVFYGGIILVLFALAGEYIIYFFGISIEALEMAGGIILLLMAVEMIMEGNRPKSSGSEIVDYDIGIVPFATPMLAGPGAISLVIILMKGPIIAKIYTIISIAIIFAMVYIFFKWSSVVSKFIGAKVMKAISRIFGLLLAGFAIQYFIDAIVALSLLK	failed
MNREELFDVTVIGGGPAGLYSAFYSGLREMKTKIIEFQPQLGGKIHVYPEKMIWDIGGLLPVTGEKLIEQLVQQGLTFQPEVVLNTKIESIIRNKDGIFTLKTSTGEEHFSKTVIVATGSGILNPQKLSIEGAERFEVSNLNYTVKSLKRFKNKTVIISGGGNSAIDWANELEPIAKKVYLTYRKEELSGHEAQVKQLMNSSAECFFNTSITTLIAGDNHEAIEYVELTNHETGEVSQLAIDEVIINHGYERDITLLENSELDVAIIDNYYIAGNANSESSVDGLYAAGDILKHEGKLHLIAGAFQDAGNAVNKAKQFIQPDASEYGMVSSHNEVFKKRNRELIKQMMK	failed
MNREKLMKMANTVRTGGKGTVRRKKKAVHKTNTTDDKRLQSTLKRIGVNSIPAIEEVNIFKDDVVIQFINPKVQASIAANTWVVSGSPQTKKLQDILPQIISQLGPDNMDNLKKLAEQFQKQASGEGNAASATIQEEDDDDVPELVGETFETAAEEKAPAAAASS	failed
MNRFIGYIQVACCCLLLCASCVRDGMDEDCNSYVRFVYDYNLEYIDLFHKQATKMNLYVFDEKGVFVTELKEESGAFAPDYLMTLPGAMAGRRYIFVAWSGLYGESYDKVTLTPGVSTLEDLEVSVNNLKTRIGGGVVDRELHLLWHGKQTEVSPQYNNDITTVSLLKNTKKFRIIMQMLDDSSIHVDDYDFRIISPNGRYNHENGLLGDETDEKVEYTAYHTEDDPETGAIAELNTLRLMTDTENRLVITHKSSGNVILDIPLNKYLNALRLQQYADIPLQEYLDRADKHGIILFFKGMDGNGNYISVDVQINGWLIRKQEVDGV	failed
MNRMMALVMAGGRGTRLAIDCEKPLLEVAGRPMIDHVLEALESATGVDGIIVVTSPHTPMTEDHVRGRHPIFRASGGGYVEDLREVLSHLEESYHEPLLVINSDLPLVRPSTIDWIISSYHSCPEPAMCVAVPDDLCRRHGLDFSGSLDGLVPCGVNILMSKNRVQEQRILEASMLELAVNINSCRDLKVLEKILGEIDGREEAHKRGREVLELEHHHHHH	not failed
MNRNKIAALIFAVSTVCVVSAHSENAYATEHKNSNQLEENNQTRSVKKGQVINVSTNLRIRKSPNTSSDVIGYLTNGEIFNIDGKEGSWYKINANGKVGYIHGDYVKEVTGNSNSSSNNSGSNSNLDTSLAGKKGTVVNVSTSLRVRQSPSTSSSVVGSLRGGQTFEIKGKSGSWYYINANGLTGYIHGDYVQVGENSSNNGGQSSGNNGQSSENNSGMDTSLAGKTGKVVNVSTSLRIRQSPSTSSSVVGSLSAGQTFKINGKNGAWYNIDAQGTKGHVHGDYVQVLSGNESSNSGSNNNQSGSQNNNLDESYNGKAGKVVNVTTNLRLRSQPSTSSSVLAYLLPNERFTLQGKTSSGWFKVNYNGKIGYLHEDYVKIVSSDEGANGNTGGSTGGGQVNQSKYEQVLSIMKSQIGSPYIYGGAGETLTSSLLSSLRRTFPDHAARGFYDIPSNYLNGNYRAFDCSGLMQWSFRQAGISLGRTTWDQINNGYEVSPSNAKPGDLLFFSNLGHVGMYIGNGQWIEAPNKGKFVSITSVPWSKIGRARRVL	failed
MNRNLLYMILRLIFVIVATVAGFYVLLYMSGLIYPFIIAFAFAYLINPVVNFLNQKLQFPRALAVLVSLILVFGAIVGLVTYLVTEAISATTYLLQLVTVKFPDIVTFAQQFALNHIMPLYDDLISKFNHLGEPQRYTITQNIQNLGTEATTQMKELLTAIISGLTNFISALPTTLTVLVFILLATFFISYDWHRLAQKARKLLPNRVHGYGKTIFVDLRKALFGFVKAQLTLVSMTTVIVLIGLLILRVPYAITIAIITGVVDLLPYLGTGAVFVPWVIYVFFTGDTAFAIGLLILYIVVIVQRQIMEPKVLSSNIGLDPLATLVALFVGFKLFGFLGLIIGPVTLVLLNTLHKANVFHDLWKYIKGSPSK	failed
MNRNRQLSDPSRFSGMAAGFFMATLGAVLFSGKAIVVKFTYRYGIDAVTLIAFRMLFAMPFFAAVAWWQARRAARGELPVLSWRERGQLCALGLLGYYLSSFLDFLGLRHITAGLERLILFLSPSLVVLLSAWWLKRPVTRRQWGAMLLSYVGVALVLSHDLSQSGAGADVLTGSFFVFCSALSYSVYLICSGELVERVGATRLVAYAMLVSCVASLIQFFLIHPASVLVQPAAVYGYSVIHATVNTVLPVFMLMWAVALVGAPTASLLGMVGPVSVLFLAAWFLDEPITVWQLAGTALVLAGVFVLAGRRRPARP	failed
MNRREVRCAFSASKAARAQLLLRGKVRLEPLPTRPRTVLGLDASYSAKDGVGVGAAVLISLETLEPVDCRVYISRVCIPYIPGLLAFRELAVMAPAAAALSAEADVVMVDGHGIAHPRRFGIASHVGVILERPSIGVAKKKLVGTLVEGPGGMYVVQDGERLAIVLGTRPREVYVSPGHRITLEEAASIARATIRPGGWMPEPTRLADVISKALKTIIGGQSLINSALASLCRVKLGPRLEELERPLRRAGLEVELEHHHHHH	failed
MNRVIACIDSSPCINAIAEAAAWVARQTKRELVLLQILDYYPASYHLGEISGVIGFESNAMLLKELAELEQKQSDLAIDYSNNLLKHISDMILEKYGIQSTKIQEKGDFLEQSFNVLRETDFVIIGKVGERAAEKNKPIGSNVENFIRGANCTVMTVGEHFKIPTRFIFAYEYSPTCLNLMQRIAQSDLLKTLQCHLLYVGDHPEVLKDPEEFLKNAGLDVITVYRYGDVAENILEYQKELGIQMIVLGAFSHSKIHQFFLGSIATSIFRNATVPLLVAK	failed

Source: a protein production outcome set (Wang et al. 2014)
